The text below walks through data of patent US20240368269A1 (Memorial Sloan Kettering, published 2024).

The target in assay [1] is T1, hDLL3 (human, UniProt Q9NYJ7 27-492, limits assumed).
T1 construct: also called human DLL3
T1 sequence: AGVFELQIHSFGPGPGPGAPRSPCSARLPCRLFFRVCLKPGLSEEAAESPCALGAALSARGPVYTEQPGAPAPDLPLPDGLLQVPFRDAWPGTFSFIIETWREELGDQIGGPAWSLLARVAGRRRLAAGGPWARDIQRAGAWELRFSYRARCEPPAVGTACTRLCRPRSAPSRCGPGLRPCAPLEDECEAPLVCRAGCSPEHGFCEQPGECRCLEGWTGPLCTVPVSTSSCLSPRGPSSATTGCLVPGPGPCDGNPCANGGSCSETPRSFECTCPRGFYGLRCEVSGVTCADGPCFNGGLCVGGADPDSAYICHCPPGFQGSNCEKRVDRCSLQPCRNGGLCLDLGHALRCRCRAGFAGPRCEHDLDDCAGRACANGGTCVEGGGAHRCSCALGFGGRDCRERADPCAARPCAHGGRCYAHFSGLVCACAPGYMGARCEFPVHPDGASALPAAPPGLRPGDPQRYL
In words: Affinity hDLL3 of Table 30; method not given.

The target of assay [2] is T2, DLL3 (target in the Fab-Zap internalization assay) (UniProt Q9NYJ7 27-618, limits assumed).
T2 sequence (looked up): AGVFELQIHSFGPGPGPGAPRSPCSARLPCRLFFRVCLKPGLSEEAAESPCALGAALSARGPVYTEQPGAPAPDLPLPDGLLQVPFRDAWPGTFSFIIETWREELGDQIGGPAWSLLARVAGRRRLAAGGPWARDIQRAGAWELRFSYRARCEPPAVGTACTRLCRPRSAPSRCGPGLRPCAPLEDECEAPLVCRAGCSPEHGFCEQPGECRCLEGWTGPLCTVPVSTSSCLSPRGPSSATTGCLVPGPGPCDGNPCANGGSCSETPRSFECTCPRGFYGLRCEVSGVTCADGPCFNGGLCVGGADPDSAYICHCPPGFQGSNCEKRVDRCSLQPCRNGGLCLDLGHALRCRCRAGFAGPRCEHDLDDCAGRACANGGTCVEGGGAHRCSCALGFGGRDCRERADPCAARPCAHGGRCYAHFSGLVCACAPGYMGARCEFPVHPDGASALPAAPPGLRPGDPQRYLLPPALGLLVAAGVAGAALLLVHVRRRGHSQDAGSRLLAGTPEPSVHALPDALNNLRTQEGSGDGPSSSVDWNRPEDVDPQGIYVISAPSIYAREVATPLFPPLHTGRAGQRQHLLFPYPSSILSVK
Briefly: cell-based or functional assay.

B1: B2 (antibody, V domains shown)
VH: QVQLVQSGAEVKKPGASVKVSCKASGYTFTSYYMHWVRQAPGQGLEWMGIINPSGGSTSYAQKFRGRVTMTRDTSTSTVYMELSSLRSEDTAVYYCARGDYDILTDYYYNMDVWGQGTTVTVSS
VL: DIQMTQSPSAMSASVGDRVTITCRASQGISNYLAWFQQKPGKVPKRLIYAASSLQSGVPSRFSGSGSGTEFTLTISSLQPEDFATYYCLQHNSYPYTFGQGTKLEIK
notes: Purified hybridoma monoclonal antibody (Ablexis AlivaMab Kappa mice); format there not clear; also called 3-B2-A
By Kd is commonly meant the constant that tells how readily two partners part at equilibrium. In the case of B1, in assay [1], the dissociation constant (Kd) stood at 3.55 nM. For the same molecule, the “Percent Max Killing (Fab-Zap internalization assay, 10 ug/ml)” value in assay [2] is 71.4%.
